According to patent publication US20250052751A1, “COMPOSITIONS AND METHODS FOR DIAGNOSING AUTOIMMUNE AQUAPORINOPATHY” (The Regents of the University of California, priority 2023, published 2025):

Target: MHC class II I-A^b molecules purified by affinity chromatography (mouse) (UniProt P14434)
Test: competitive peptide binding assay on purified I-Ab

IC50: 387 nM
Substance: MOG p35-55 (from UniProt Q61885 63-83)
